Positions count from the first letter of the chain named. Read-outs that look alike come from different tables or passages of the source. No end group written: not given here.
How the values were obtained:
E2 peptide B1 [1] = biological target: T1, E2 peptide B1 (Hepatitis C virus, genotype 2b (Table 5)); experiment: peptide ELISA: biotinylated peptide on streptavidin plate, COS7 supernatant, anti-human kappa HRP, OD 655 nm
Peptide D3 [2] = biological target: T2, Peptide D3; experiment: as above
T2 construct: member of the group m28

AP33 mimotope peptide H6 [3] = biological target: T3, AP33 mimotope peptide H6; experiment: as above
T3 construct: captured on streptavidin plates; also called mimotope H6; H6 peptide
T3 peptide: VELRNLGGTWRPGSGK-biotin

AP33 mimotope peptide H6 [4] = biological target: T3, AP33 mimotope peptide H6; experiment: as above
[5] = biological target: HCV E1E2 glycoproteins, isolate 1B5.23 (on HCVpp) (Hepatitis C virus genotype 1 (1B5.23)); experiment: cell-based or functional assay
[6] = biological target: HCV E1E2 glycoproteins, isolate 2A2.4 (on HCVpp) (Hepatitis C virus genotype 2 (2A2.4)); experiment: cell-based or functional assay
[7] = biological target: HCV E1E2 glycoproteins, isolate 2B1.1 (on HCVpp) (Hepatitis C virus genotype 2 (2B1.1)); experiment: cell-based or functional assay
[8] = biological target: HCV E1E2 glycoproteins, genotype 3a isolate F4/2-35 (on HCVpp) (Hepatitis C virus genotype 3a (F4/2-35)); experiment: cell-based or functional assay
[9] = biological target: HCV E1E2 glycoproteins, genotype 2a isolate JFH1 (on HCVpp) (Hepatitis C virus genotype 2a (JFH1), UniProt Q99IB8 192-383; Q99IB8 384-750); experiment: cell-based or functional assay
[10] = biological target: HCV E1E2 glycoproteins, isolate 1A20.8 (on HCVpp) (Hepatitis C virus genotype 1 (1A20.8)); experiment: cell-based or functional assay
[11] = biological target: HCV E1E2 glycoproteins, isolate 4.21.16 (on HCVpp) (Hepatitis C virus genotype 4 (4.21.16)); experiment: cell-based or functional assay
[12] = biological target: HCV E1E2 glycoproteins, isolate 6.5.8 (on HCVpp) (Hepatitis C virus genotype 6 (6.5.8)); experiment: cell-based or functional assay
[13] = biological target: HCV E1E2 glycoproteins, isolate 5.15.11 (on HCVpp) (Hepatitis C virus genotype 5 (5.15.11)); experiment: cell-based or functional assay
[14] = biological target: HCV E1E2 glycoproteins, genotype 2a (J6) (Hepatitis C virus genotype 2a (J6)); experiment: cell-based or functional assay
[15] = biological target: HCV E1E2 glycoproteins, genotype 1b (Con1) (Hepatitis C virus genotype 1b (Con1), UniProt Q9WMX2 192-383; Q9WMX2 384-746); experiment: cell-based or functional assay
[16] = biological target: T4, HCV E1E2 heterodimer expressed on the surface of 293T cells (Hepatitis C virus (isolate )); experiment: Scatchard analysis, 125I-antibody versus unlabeled antibody on E1E2-transfected 293T cells
T4 construct: whole, on cells; also called cell surface expressed E2; E1E2 Scatchard

[17] = biological target: T5, soluble HCV E2 truncated at amino acid 661 (sE2661), His-tagged (Hepatitis C virus (isolate )); experiment: SPR (BIAcore A100), antibody captured on anti-human Fc chip, sE2 injected 1.56-50 nM, 1:1 Langmuir fit
T5 construct: extracellular domain; also called soluble E2

E2 peptide B1 [18] = biological target: T1, E2 peptide B1; experiment: peptide ELISA: biotinylated peptide on streptavidin plate, COS7 supernatant, anti-human kappa HRP, OD 655 nm; remark: listed apart in the source
Peptide D3 [19] = biological target: T2, Peptide D3; experiment: as above; remark: listed apart in the source
AP33 mimotope peptide H6 [20] = biological target: T3, AP33 mimotope peptide H6; experiment: as above
E2 peptide C2 [21] = biological target: T6, E2 peptide C2 (Hepatitis C virus, genotype 1a (Table 5), not fully specified (residue 16, C-terminus)); experiment: as above
T6 peptide: QLINTNGSWHVNGSGK

E2 peptide B1 [22] = biological target: T1, E2 peptide B1; experiment: as above; remark: listed apart in the source
Peptide D3 [23] = biological target: T2, Peptide D3; experiment: as above; remark: listed apart in the source
AP33 mimotope peptide H6 [24] = biological target: T3, AP33 mimotope peptide H6; experiment: as above
E2 peptide C2 [25] = biological target: T6, E2 peptide C2; experiment: as above
[26] = biological target: T5, soluble HCV E2 truncated at amino acid …; experiment: SPR (BIAcore), sE2
[27] = biological target: T4, HCV E1E2 heterodimer expressed on the …; experiment: Scatchard analysis, 125I-Fab versus unlabeled Fab on E1E2-transfected 293T cells
E2 peptide B1 [28] = biological target: T1, E2 peptide B1; experiment: peptide ELISA: biotinylated peptide on streptavidin plate, COS7 supernatant, anti-human kappa HRP, OD 655 nm; remark: listed apart in the source
Peptide D3 [29] = biological target: T2, Peptide D3; experiment: as above; remark: listed apart in the source
AP33 mimotope peptide H6 [30] = biological target: T3, AP33 mimotope peptide H6; experiment: as above
E2 peptide B1 [31] = biological target: T1, E2 peptide B1; experiment: as above; remark: listed apart in the source
Peptide D3 [32] = biological target: T2, Peptide D3; experiment: as above; remark: listed apart in the source
AP33 mimotope peptide H6 [33] = biological target: T3, AP33 mimotope peptide H6; experiment: as above
E2 peptide C2 [34] = biological target: T6, E2 peptide C2; experiment: as above
E2 peptide B1 [35] = biological target: T1, E2 peptide B1; experiment: as above; remark: listed apart in the source
Peptide D3 [36] = biological target: T2, Peptide D3; experiment: as above; remark: listed apart in the source
AP33 mimotope peptide H6 [37] = biological target: T3, AP33 mimotope peptide H6; experiment: as above
E2 peptide C2 [38] = biological target: T6, E2 peptide C2; experiment: as above

B1: humanized AP33 antibody RHb-h/RK2bc (antibody, V domains shown)
VH: QVQLQESGPGLVKPSETLSLTCTVSGDSITSGYWNWIRQPPGRALEYMGYISYSGSTYYNLSLRSRITISRDTSKNQYSLRLSSVTAADTAMYYCALITTTTYAMDYWGQGTTVTVS
VL: EIVLTQSPSSLSASVGDRVTITCRASESVDGYGNSFLHWFQQKPGKAPKLLIYLASNLNSGVPSRFSGSGSRTDFTLTISSLQPEDFATYYCQQNNVDPWTFGQGTKLEIK
notes: also called RHbcdefgh/RK2bc
In the case of B1, the binding result (E2 peptide B1 [1]) is reported as “no binding (tested: about 1400 ng/ml)”, the “EC50 (read off the curve)” value (Peptide D3 [2]) is reported as roughly 0.05 µg/mL and the “EC50 (read off the curve)” value (AP33 mimotope peptide H6 [3]) is reported as roughly 0.04 µg/mL. The “EC50 (read off the curve)” value (AP33 mimotope peptide H6 [4]) was roughly 0.03 µg/mL.

B2: humanized AP33 antibody RH-C/RK2b (antibody, V domains shown)
VH: QVQLQESGPGLVKPSETLSLTCTVSGDSITSGYWNWIRQPPGRALEWMGYISYSGSTYYNLSLRSRITISRDTSKNQYSLRLSSVTAADTAMYYCALITTTTYAMDYWGQGTTVTVSS
VL: B1 VL with R72G
notes: also called RH-C antibody
For B2, the “IC50 of HCVpp infection (Huh-7, luciferase)” value (shortened to “IC50 of HCVpp infection”) [5] was 0.9 µg/mL, the “IC90 of HCVpp infection (Huh-7, luciferase)” value (shortened to “IC90 of HCVpp infection”) [5] was 8.3 µg/mL and the “IC50 of HCVpp infection” value [6] was 0.51 µg/mL. The “IC90 of HCVpp infection” value [6] was 6 µg/mL, the “IC50 of HCVpp infection” value [7] was 3 µg/mL and the “IC90 of HCVpp infection” value [7] was greater than 15 µg/mL. For the same binder, the “IC50 of HCVpp infection” value [8] was less than 0.41 µg/mL, the “IC90 of HCVpp infection” value [8] was 2.15 µg/mL and the “IC50 of HCVpp infection” value [9] was 0.64 µg/mL. For the same binder, the “IC90 of HCVpp infection” value [9] was 7 µg/mL, the “IC50 of HCVpp infection” value [10] was 1.6 µg/mL and the “IC90 of HCVpp infection” value [10] was 15 µg/mL. For the same binder, the “IC50 of HCVpp infection” value [11] was less than 0.41 µg/mL, the “IC90 of HCVpp infection” value [11] was 0.92 µg/mL and the “IC50 of HCVpp infection” value [12] was less than 0.41 µg/mL. The “IC90 of HCVpp infection” value [12] was 1.8 µg/mL, the “IC50 of HCVpp infection” value [13] was 0.053 µg/mL and the “IC90 of HCVpp infection” value [13] was 0.82 µg/mL. The “EC50, neutralization of J6 HCVpp entry (Huh-7.5, luciferase)” value [14] was 0.793 µg/mL, the “neutralization of J6 HCVcc infection, fold better than AP33” value [14] was no less than 4.7 fold and the “EC50, neutralization of Con1 HCVpp entry (Huh-7.5, luciferase)” value [15] was 0.511 µg/mL. For the same binder, the Kd [16] was 5 nM and the Kd [17] was 3.8 nM.

B3: RHb-h/Vl (humanized heavy chain RHb-h with chimeric light chain) (antibody, V domains shown)
VH: B1 VH
VL: NIVLTQSPVSLAVSLGQRATISCRASESVDGYGNSFLHWFQQKPGQPPKLLIYLASNLNSGVPARFSGSGSRTDFTLTIDPVEADDAATYYCQQNNVDPWTFGGGTKLEIK
notes: also called RHb-h/V1
For B3, the binding result (E2 peptide B1 [18]) was “no binding (tested: about 500 ng/ml)”, the “EC50 (read off the curve)” value (Peptide D3 [19]) was roughly 0.02 µg/mL and the “EC50 (read off the curve)” value (AP33 mimotope peptide H6 [20]) was roughly 0.02 µg/mL. B3: binds (E2 peptide C2 [21]).

B4: humanized AP33 antibody RH-C/RK2bc (antibody, V domains shown)
VH: B2 VH
VL: B1 VL
For B4, the binding result (E2 peptide B1 [22]) was “no binding (tested: about 2200 ng/ml)”, the “EC50 (read off the curve)” value (Peptide D3 [23]) was roughly 0.05 µg/mL and the “EC50 (read off the curve)” value (AP33 mimotope peptide H6 [24]) was roughly 0.04 µg/mL. B4: binds (E2 peptide C2 [25]).

B5: RH-C/RK2b Fab (Fab, V domains shown)
VH: B2 VH
VL: B1 VL with R72G
notes: also called Fab fragment of RH-C/RK2b
B5 showed a Kd [26] of roughly 0.5 nM and a Kd [27] of 50 nM.

B6: humanized AP33 antibody RH-H/RK2bc (antibody, V domains shown)
VH: B1 VH with L97R
VL: B1 VL
In the case of B6, the binding result (E2 peptide B1 [28]) is reported as “no binding (tested: about 1000 ng/ml)”, the “EC50 (read off the curve)” value (Peptide D3 [29]) is reported as roughly 0.04 µg/mL and the “EC50 (read off the curve)” value (AP33 mimotope peptide H6 [30]) is reported as roughly 0.03 µg/mL.

B7: AP33 RH-B/RK2bc (antibody, V domains shown)
VH: B2 VH with T30S, W47Y
VL: B1 VL
notes: COS7 supernatant
B7: no binding (tested: about 800 ng/ml) (E2 peptide B1 [31]); binds (Peptide D3 [32]); binds (AP33 mimotope peptide H6 [33]). B7: binds (E2 peptide C2 [34]).

B8: AP33 RH-D/RK2bc (antibody, V domains shown)
VH: B1 VH with M48I
VL: B1 VL
notes: COS7 supernatant
In the case of B8, the binding result (E2 peptide B1 [35]) is reported as “no binding (tested: about 950 ng/ml)”, the “EC50 (read off the curve)” value (Peptide D3 [36]) is reported as roughly 0.04 µg/mL and the “EC50 (read off the curve)” value (AP33 mimotope peptide H6 [37]) is reported as roughly 0.04 µg/mL. B8: binds (E2 peptide C2 [38]).

— patent US20120027722A1 (MEDICAL RESEARCH COUNCIL, published 2012)
